Test system: PFEK-protease D-G-6×HIS zymogen
Sequence (chain, as listed by the source): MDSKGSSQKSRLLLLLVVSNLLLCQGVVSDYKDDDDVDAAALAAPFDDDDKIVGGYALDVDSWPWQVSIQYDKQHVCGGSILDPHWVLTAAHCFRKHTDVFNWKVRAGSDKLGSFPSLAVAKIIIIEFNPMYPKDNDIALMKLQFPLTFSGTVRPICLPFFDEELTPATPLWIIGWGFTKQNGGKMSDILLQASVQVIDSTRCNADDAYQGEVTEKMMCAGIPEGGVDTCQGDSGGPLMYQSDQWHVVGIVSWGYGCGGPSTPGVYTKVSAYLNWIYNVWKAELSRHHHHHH

Substance: enterokinase
- cleavage and activation of the zymogen (SDS-PAGE mobility shift and Western blot): This demonstrates the quantitative cleavage of the expressed and purified zymogen to generate the processed and activated protease

From US7070977
